Consider one molecule from US20220332804A1 (CSL INNOVATION, published 2022).

By Kd is commonly meant the concentration at which binding is half-saturated.

Changes are numbered by the printed parent chain.

Holding throughout (test): SPR, antibody captured, C2 as analyte;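 note: biacore at 37 °C, anti-C2 mAbs held by immobilised goat anti-human IgG, C2 alanine or serine mutants injected, double-referenced sensorgrams fitted to a 1:1 kinetic or steady-state model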
On the technique in general: In SPR one partner is held on a chip, and binding of the other changes the refractive index at the surface.

The target in assay [1] is T1, human C2 D417A (human, UniProt P06681 21-752).
T1 sequence: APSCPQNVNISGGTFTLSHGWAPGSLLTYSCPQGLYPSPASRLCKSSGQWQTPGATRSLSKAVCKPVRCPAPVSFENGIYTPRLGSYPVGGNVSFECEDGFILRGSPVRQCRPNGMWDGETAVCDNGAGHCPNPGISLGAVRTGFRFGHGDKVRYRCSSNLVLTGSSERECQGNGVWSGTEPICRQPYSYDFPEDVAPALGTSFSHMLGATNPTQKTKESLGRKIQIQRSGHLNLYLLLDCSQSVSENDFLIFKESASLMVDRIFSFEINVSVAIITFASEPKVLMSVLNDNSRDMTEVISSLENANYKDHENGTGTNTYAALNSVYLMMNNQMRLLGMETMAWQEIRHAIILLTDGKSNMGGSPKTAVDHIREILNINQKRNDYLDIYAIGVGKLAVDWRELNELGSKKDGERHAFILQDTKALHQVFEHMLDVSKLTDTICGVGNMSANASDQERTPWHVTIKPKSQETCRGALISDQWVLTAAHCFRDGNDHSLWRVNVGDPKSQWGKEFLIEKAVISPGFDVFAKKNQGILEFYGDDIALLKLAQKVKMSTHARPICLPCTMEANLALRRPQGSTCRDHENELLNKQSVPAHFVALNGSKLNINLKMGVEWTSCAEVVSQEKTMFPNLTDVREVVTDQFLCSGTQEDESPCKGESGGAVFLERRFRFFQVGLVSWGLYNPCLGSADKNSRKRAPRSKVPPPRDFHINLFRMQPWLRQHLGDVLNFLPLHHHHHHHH

For assay [2], the target named is T2, human C2 A436S (human, UniProt P06681 21-752).
T2 sequence: T1 sequence with A397D, A416S

For assay [3], the target named is T3, human C2 V455A (human, UniProt P06681 21-752).
T3 sequence: T1 sequence with A397D, V435A

B1: RF16-242 (antibody, human IgG4 S228P, lambda, V domains shown)
VH: EVQLLQSGAEVKKPGESLKISCKGSGYSFTSYWIGWVRQMPGKGLEWMGIIYPGDSDTRYSPSFQGQVTISADKSISTAYLQWSSLKASDTAMYYCARRGHYGDYFDYWGQGTLVTVSS
VL: SYELTQPPSVSVSPGQTARITCSGDALPKKYAYWYHQKSGQAPVLVIYEDRRRPSEIPERFSGSSSGTMATLTITGAQVEDEGVYFCYSRDRAGNQRVFGGGTQLTVLG
notes: pH-dependent anti-C2 antibody from a phage display library
Take B1: the Kd worked out at 23 nM in assay [1], 4.9 nM in assay [2] and 5.9 nM in assay [3].
